{
  "source": "paper PMC7368063",
  "about": "“An FGF15/19-TFEB regulatory loop controls hepatic cholesterol and bile acid homeostasis”",
  "binders": {"B1": {"name": "NPC2 CLEAR probe (positive control) (dsDNA)", "DNA 1": "GCGCGGGCGGGCCTCAGCTGTGGTTACTGGTGACAGGTCGCCTGA", "DNA 2": "TCAGGCGACCTGTCACCAGTAACCACAGCTGAGGCCCGCCCGCGC"}},
  "molecular_target": "TFEB (rhTFEB) (human, UniProt P19484 1-476)",
  "sequence (P19484 whole entry)": "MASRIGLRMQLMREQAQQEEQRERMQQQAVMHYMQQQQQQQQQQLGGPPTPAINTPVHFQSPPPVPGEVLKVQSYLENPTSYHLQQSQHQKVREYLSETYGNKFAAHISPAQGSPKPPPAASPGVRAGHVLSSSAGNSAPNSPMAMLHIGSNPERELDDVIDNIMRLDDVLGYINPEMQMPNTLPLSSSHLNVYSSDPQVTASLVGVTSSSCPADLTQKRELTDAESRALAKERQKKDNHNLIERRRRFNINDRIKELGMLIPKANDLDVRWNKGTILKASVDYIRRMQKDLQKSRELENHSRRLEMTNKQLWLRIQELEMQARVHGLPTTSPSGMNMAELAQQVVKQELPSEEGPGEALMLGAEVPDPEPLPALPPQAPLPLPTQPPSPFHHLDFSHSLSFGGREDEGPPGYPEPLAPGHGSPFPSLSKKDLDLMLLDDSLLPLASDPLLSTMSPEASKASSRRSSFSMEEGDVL",
  "test": "EMSA; EMSA kit with SYBR green (Thermo Fisher), 5 pmol annealed probe, 200 ng rhTFEB; buffer, salt, pH and temperature not stated",
  "conditions": "protein: commercial; chain copies: 2",
  "data": [
    {"binder": "B1", "values": [
      {"measurement": "binding result", "value": "binds"}
    ]}
  ]
}
